In article PMC6212785, “RGG-box in hnRNPA1 specifically recognizes the telomere G-quadruplex DNA and enhances the G-quadruplex unfolding ability of UP1 domain”:

What was measured:
UP1 [1] = biological target: T1, UP1 (UniProt P09651-2 1-196); test: ITC; 100 mM KCl; ITC/CD: 20 mM Tris-Cl pH 8, 100 mM NaCl or KCl, 25 C; NMR: 10 mM sodium or potassium phosphate pH 6.5, 100 mM NaCl or KCl, 298 K; details: protein: recombinant, tags: C-terminal 6xHis (pET28a), chain copies: 2
UP1+RGG [2] = biological target: T2, UP1+RGG (UniProt P09651-2 1-249); test: as above; details: protein: recombinant, tags: C-terminal 6xHis (pET28a), chain copies: 2
T2 sequence (P09651 1-249): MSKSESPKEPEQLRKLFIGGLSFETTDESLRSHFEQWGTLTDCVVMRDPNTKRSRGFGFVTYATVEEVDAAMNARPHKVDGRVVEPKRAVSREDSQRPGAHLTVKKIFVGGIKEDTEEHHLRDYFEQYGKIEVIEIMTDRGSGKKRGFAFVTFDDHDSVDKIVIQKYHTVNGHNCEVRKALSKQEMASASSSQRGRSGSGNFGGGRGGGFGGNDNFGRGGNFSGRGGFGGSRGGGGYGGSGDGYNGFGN

UP1 [3] = biological target: T1, UP1; test: ITC; 100 mM NaCl; ITC/CD: 20 mM Tris-Cl pH 8, 100 mM NaCl or KCl, 25 C; NMR: 10 mM sodium or potassium phosphate pH 6.5, 100 mM NaCl or KCl, 298 K; details: protein: recombinant, tags: C-terminal 6xHis (pET28a), chain copies: 2
UP1+RGG [4] = biological target: T2, UP1+RGG; test: as above; details: protein: recombinant, tags: C-terminal 6xHis (pET28a), chain copies: 2
RGG-box = RGG-box (UniProt P09651-2 197-249); test: NMR 15N-1H HSQC titration; apparent Kd, global fit of 14 residues (individual 151-433 uM); ITC/CD: 20 mM Tris-Cl pH 8, 100 mM NaCl or KCl, 25 C; NMR: 10 mM sodium or potassium phosphate pH 6.5, 100 mM NaCl or KCl, 298 K; details: protein: recombinant; tags: N-terminal GST removed by TEV; intramolecular G4 (monomeric)
RGG-box, sequence (P09651 197-249): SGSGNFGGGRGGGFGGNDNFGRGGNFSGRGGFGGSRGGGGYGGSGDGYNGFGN

T1 sequence (P09651 1-196): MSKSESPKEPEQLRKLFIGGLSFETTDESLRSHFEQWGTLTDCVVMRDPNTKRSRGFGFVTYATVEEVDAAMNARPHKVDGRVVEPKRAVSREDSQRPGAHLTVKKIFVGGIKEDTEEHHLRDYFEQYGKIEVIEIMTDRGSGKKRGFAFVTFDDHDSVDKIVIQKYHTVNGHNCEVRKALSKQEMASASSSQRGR

Binder | Kd (UP1 [1]; single strand) | Kd (UP1+RGG [2]; single strand) | Kd (UP1 [3]; single strand) | Kd (UP1+RGG [4]; single strand) | Kd (UP1 [1]; intramolecular G4 (monomeric)) | Kd (UP1+RGG [2]; intramolecular G4 (monomeric)) | Kd (UP1 [3]; intramolecular G4 (monomeric)) | Kd (UP1+RGG [4]; intramolecular G4 (monomeric)) | Kd (RGG-box)
AGGATTAGGATTAGGATTAGGA (ssDNA) [Tel22ss] | 1230 ± 140 nM | 1110 ± 150 nM | 1200 ± 310 nM | 1040 ± 150 nM | – | – | – | – | –
AGGGTTAGGGTTAGGGTTAGGG (structured_DNA) [Tel22 G-quadruplex] | – | – | – | – | 5620 ± 1090 nM | 4850 ± 600 nM | 710 ± 140 nM | 600 ± 130 nM | 349000 ± 35000 nM
